# T1: ParB1-His6 WT (Streptomyces coelicolor A3(2), plasmid SCP1) (UniProt Q9AD11)
# T1 sequence: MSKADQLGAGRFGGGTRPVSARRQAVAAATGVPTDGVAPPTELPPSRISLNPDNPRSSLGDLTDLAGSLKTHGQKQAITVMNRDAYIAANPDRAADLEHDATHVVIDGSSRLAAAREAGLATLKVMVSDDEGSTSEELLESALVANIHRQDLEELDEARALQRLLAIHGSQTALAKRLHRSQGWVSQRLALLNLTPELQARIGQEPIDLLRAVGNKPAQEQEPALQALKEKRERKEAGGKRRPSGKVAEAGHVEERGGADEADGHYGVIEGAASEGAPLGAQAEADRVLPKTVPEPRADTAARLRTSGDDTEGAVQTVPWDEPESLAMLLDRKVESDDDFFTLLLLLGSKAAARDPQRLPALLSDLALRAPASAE
# T2: ParB2-His6 WT (Streptomyces coelicolor A3(2), plasmid SCP1) (UniProt Q9ACT0)
# T2 sequence: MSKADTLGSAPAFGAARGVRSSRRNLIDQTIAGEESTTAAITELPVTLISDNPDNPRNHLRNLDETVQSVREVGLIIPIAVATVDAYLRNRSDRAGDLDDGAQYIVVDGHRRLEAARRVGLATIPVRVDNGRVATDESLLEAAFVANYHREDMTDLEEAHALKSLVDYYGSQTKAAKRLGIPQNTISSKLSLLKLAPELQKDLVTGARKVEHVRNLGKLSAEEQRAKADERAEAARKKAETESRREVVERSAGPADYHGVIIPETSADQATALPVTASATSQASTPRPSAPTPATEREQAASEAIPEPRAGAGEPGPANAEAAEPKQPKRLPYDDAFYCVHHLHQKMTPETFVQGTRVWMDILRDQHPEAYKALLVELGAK
# T3: His6-ScParB WT (Streptomyces coelicolor, UniProt Q9S6U1 1-328)
# T3 sequence: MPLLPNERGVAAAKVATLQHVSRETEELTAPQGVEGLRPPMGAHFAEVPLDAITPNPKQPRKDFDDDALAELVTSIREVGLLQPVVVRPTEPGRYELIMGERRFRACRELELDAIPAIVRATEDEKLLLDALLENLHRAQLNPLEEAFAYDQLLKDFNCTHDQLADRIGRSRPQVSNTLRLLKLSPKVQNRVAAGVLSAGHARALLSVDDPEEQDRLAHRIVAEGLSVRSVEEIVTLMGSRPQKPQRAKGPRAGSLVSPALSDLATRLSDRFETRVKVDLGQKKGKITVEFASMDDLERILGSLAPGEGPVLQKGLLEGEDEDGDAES
# T4: ParB1-His6 WT (Streptomyces coelicolor A3(2), plasmid …, UniProt Q9AD11 1-375)
# T4 sequence: T1 sequence
# T5: ParB2-His6 WT (Streptomyces coelicolor A3(2), plasmid …, UniProt Q9ACT0 1-381)
# T5 sequence: T2 sequence
# B1: parS1 50 bp (dsDNA)
# DNA 1: CTTCGGACGCGGCACCCTCTATTACGGCGTAATGGCCGTCTGCCTCATCC
# DNA 2: GGATGAGGCAGACGGCCATTACGGCGTAATAGAGGGTGCCGCGTCCGAAG
# B2: parS2 50 bp (dsDNA)
# DNA 1: AGCAGGCCCCGCCGATTATCACGGCGTGATAATCCCGGAGACGTCCGCTG
# DNA 2: CAGCGGACGTCTCCGGGATTATCACGCCGTGATAATCGGCGGGGCCTGCT
# B3: scrambled parS 50 bp (dsDNA)
# DNA 1: GGCCCTGGGTATTCCCTCCGGGACTCGAAGGACGAACGACGCTCGCACAT
# DNA 2: ATGTGCGAGCGTCGTTCGTCCTTCGAGTCCCGGAGGGAATACCCAGGGCC
# B4: ScparS 50 bp (dsDNA)
# DNA 1: TCGGGGATGGTGTTTCGCGTTTCACGTGAAACAACCCCAGCGTACCGGGC
# DNA 2: GCCCGGTACGCTGGGGTTGTTTCACGTGAAACGCGAAACACCATCCCCGA
# Experiments:
# [1] = molecular target: T6, ParB2 (Streptomyces coelicolor, UniProt Q9ACT0, N55A); experiment: CTP binding test in supplement; conditions: 1 mM CTP with parS2 if DSF as in methods
# T6 construct: ParB2-His6, C-terminal His6 kept, pET21b, codon-optimized synthetic gene, E. coli Rosetta (BL21 DE3) pLysS; dimer
# [2] = molecular target: T7, ParB1 (Streptomyces coelicolor, UniProt Q9AD11); experiment: isothermal titration calorimetry; format: binding
# T7 construct: ParB1-His6, C-terminal His6 kept, pET21b, codon-optimized synthetic gene, E. coli Rosetta (BL21 DE3) pLysS; dimer
# [3] = molecular target: T8, ParB1 (Streptomyces coelicolor, UniProt Q9AD11, S110A); experiment: CTP binding test in supplement; conditions: 1 mM CTP with parS1 if DSF as in methods
# T8 construct: ParB1-His6, C-terminal His6 kept, pET21b, codon-optimized synthetic gene, E. coli Rosetta (BL21 DE3) pLysS; dimer
# [4] = molecular target: T9, ParB2 (Streptomyces coelicolor, UniProt Q9ACT0); experiment: differential scanning fluorimetry (Tycho); format: binding; conditions: 1 mM CTP, 4 µM ParB2 dimer, with 2 µM parS2 DNA; 100 mM Tris-HCl, 250 mM NaCl, 1 mM MgCl2, 5% glycerol, pH 8.0
# T9 construct: ParB2-His6, C-terminal His6 kept, pET21b, codon-optimized synthetic gene, E. coli Rosetta (BL21 DE3) pLysS; dimer
# [5] = molecular target: T10, ParB1 (Streptomyces coelicolor, UniProt Q9AD11, N54A); experiment: CTP binding test in supplement; conditions: 1 mM CTP with parS1 if DSF as in methods
# T10 construct: ParB1-His6, C-terminal His6 kept, pET21b, codon-optimized synthetic gene, E. coli Rosetta (BL21 DE3) pLysS; dimer
# [6] = molecular target: T11, ParB2 (Streptomyces coelicolor, UniProt Q9ACT0, R57A); experiment: CTP binding test in supplement; conditions: 1 mM CTP with parS2 if DSF as in methods
# T11 construct: ParB2-His6, C-terminal His6 kept, pET21b, codon-optimized synthetic gene, E. coli Rosetta (BL21 DE3) pLysS; dimer
# [7] = molecular target: T12, ParB1 (Streptomyces coelicolor, UniProt Q9AD11, S109A); experiment: CTP binding test in supplement; conditions: 1 mM CTP with parS1 if DSF as in methods
# T12 construct: ParB1-His6, C-terminal His6 kept, pET21b, codon-optimized synthetic gene, E. coli Rosetta (BL21 DE3) pLysS; dimer
# [8] = molecular target: T9, ParB2; experiment: isothermal titration calorimetry; format: binding
# [9] = molecular target: T1, ParB1-His6 WT (Streptomyces coelicolor A3(2), plasmid SCP1); experiment: BLI; conditions: 1 mM CTP; BLI: 100 mM Tris-HCl pH 8, 100 mM NaCl, 1 mM MgCl2, 0.005% Tween 20, 25 C; ParB 0.0625-2 uM (50 bp) or 1 uM (190 bp)
# [10] = molecular target: T2, ParB2-His6 WT (Streptomyces coelicolor A3(2), plasmid SCP1); experiment: BLI; conditions: 1 mM CTP; BLI: 100 mM Tris-HCl pH 8, 100 mM NaCl, 1 mM MgCl2, 0.005% Tween 20, 25 C; ParB 0.0625-2 uM (50 bp) or 1 uM (190 bp)
# [11] = molecular target: T3, His6-ScParB WT; experiment: BLI; no CTP; BLI: 100 mM Tris-HCl pH 8, 100 mM NaCl, 1 mM MgCl2, 0.005% Tween 20, 25 C; ParB 0.0625-2 uM (50 bp) or 1 uM (190 bp); conditions: protein: recombinant, tags: N-terminal His6, chain copies: 2, label: 5' biotin on strand 1, blunt
# [12] = molecular target: T4, ParB1-His6 WT; experiment: as above; conditions: protein: recombinant, tags: C-terminal His6, chain copies: 2, label: 5' biotin on strand 1, blunt
# [13] = molecular target: T5, ParB2-His6 WT; experiment: as above; conditions: protein: recombinant; tags: C-terminal His6; chain copies: 2; label: 5' biotin on strand 1; blunt
# [14] = printed strands give one G:G mismatch at site centre
# T6 sequence (Q9ACT0 entry or part of it N55A): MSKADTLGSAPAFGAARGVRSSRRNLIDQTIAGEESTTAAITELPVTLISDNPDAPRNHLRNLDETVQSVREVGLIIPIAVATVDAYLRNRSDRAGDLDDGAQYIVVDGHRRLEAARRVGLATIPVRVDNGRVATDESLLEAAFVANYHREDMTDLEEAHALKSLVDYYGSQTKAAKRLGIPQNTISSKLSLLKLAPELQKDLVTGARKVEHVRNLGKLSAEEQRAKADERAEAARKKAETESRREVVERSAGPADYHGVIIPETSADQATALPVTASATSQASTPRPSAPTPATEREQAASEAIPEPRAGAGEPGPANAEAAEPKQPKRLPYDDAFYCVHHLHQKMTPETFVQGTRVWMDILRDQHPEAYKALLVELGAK
# T8 sequence (Q9AD11 entry or part of it S110A): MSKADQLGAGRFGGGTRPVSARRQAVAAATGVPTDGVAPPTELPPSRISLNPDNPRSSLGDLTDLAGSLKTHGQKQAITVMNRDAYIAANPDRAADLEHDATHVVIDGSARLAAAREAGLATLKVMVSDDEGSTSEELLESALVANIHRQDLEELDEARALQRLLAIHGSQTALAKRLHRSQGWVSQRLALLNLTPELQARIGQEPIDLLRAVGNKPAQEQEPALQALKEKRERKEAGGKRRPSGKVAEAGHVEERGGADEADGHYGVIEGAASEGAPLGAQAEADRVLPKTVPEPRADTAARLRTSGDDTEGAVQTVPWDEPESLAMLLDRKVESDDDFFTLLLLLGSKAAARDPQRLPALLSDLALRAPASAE
# T12 sequence (Q9AD11 entry or part of it S109A): as the sequence (Q9AD11 entry or part of it S110A) above, with S109A, A110S counted along it
# T10 sequence (Q9AD11 entry or part of it N54A): as the sequence (Q9AD11 entry or part of it S110A) above, with N54A, A110S counted along it
# T11 sequence (Q9ACT0 entry or part of it R57A): as the sequence (Q9ACT0 entry or part of it N55A) above, with A55N, R57A counted along it
molecule,measurement,setting,value
Nc1ccn([C@@H]2O[C@H](COP(=O)(O)OP(=O)(O)OP(=O)(O)O)[C@@H](O)[C@H]2O)c(=O)n1 [CTP],CTP binding test in supplement,[1],"ParB1 N54A, S109A, and S110A or ParB2 N55A and R57A still bound CTP"
same,Kd,[2],31.6 ± 17.8 µM
same,CTP binding test in supplement,[3],"ParB1 N54A, S109A, and S110A or ParB2 N55A and R57A still bound CTP"
same,differential scanning fluorimetry (Tycho),[4],only when ParB1 or ParB2 was incubated with both their cognate parS site and CTP
same,CTP binding test in supplement,[5],"ParB1 N54A, S109A, and S110A or ParB2 N55A and R57A still bound CTP"
same,CTP binding test in supplement,[6],"ParB1 N54A, S109A, and S110A or ParB2 N55A and R57A still bound CTP"
same,CTP binding test in supplement,[7],"ParB1 N54A, S109A, and S110A or ParB2 N55A and R57A still bound CTP"
Nc1ccn([C@@H]2O[C@H](COP(=O)(O)OP(=O)(O)OP(O)(O)=S)[C@@H](O)[C@H]2O)c(=O)n1 [CTPγS],Kd,[2],28.2 ± 5.9 µM
same,Kd,[8],12.5 ± 5.05 µM
parS1 190-bp closed loop,binding signal (fold BLI signal vs no CTP),[9],4
parS2 190-bp closed loop,binding signal (fold BLI signal vs no CTP),[10],3
B1,binding result,[11]; [14],no binding
same,Kd,[12]; [14],0.386 ± 0.042 µM
B2,Kd,[13],0.377 ± 0.055 µM
same,binding result,[11],no binding
B3,binding result,[13],no binding
same,binding result,[11],no binding
same,binding result,[12],no binding
B4,binding result,[13],no binding
same,Kd,[11],0.331 ± 0.064 µM
same,binding result,[12],no binding
